Patent publication US6723697B2, “IL-16 antagonists” (Research Corporation Technologies, Inc., priority 1999, dated 2004)
Positions count from the first letter of the chain named. Entries after “also recorded” stand apart in the source; their conditions may differ. One block for each molecule: values may come before it.

Assays:
Assay type in all cases: cell-based
rIL-16 = molecular target: T1, rIL-16 (Mus musculus, UniProt O54824); assay: IL-2R (CD25) induction on rIL-16-stimulated murine splenocytes, flow cytometry
T1 construct: polyhistidine fusion protein containing the 119 C-terminal residues encoded by the previously reported murine cDNA; polyhistidine (cleaved yes); made in house; host or cells: Escherichia coli strain HMS 174, vector pET16b
T1 sequence (O54824 1204-1322): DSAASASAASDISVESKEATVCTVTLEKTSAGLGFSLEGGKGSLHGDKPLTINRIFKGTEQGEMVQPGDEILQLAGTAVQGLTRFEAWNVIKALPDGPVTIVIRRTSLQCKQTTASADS
Protocol: Induction of IL-2R (CD25) on rIL-16-stimulated murine splenocytes was detected by staining with FITC-conjugated anti-mouse IL-2R Ab (PharMingen). Cells were fixed with 10% formalin and stored at 4° C. in the dark before analysis with a Becton Dickinson FACScan 440 flow cytometer. The % IL-2R^+ cells was determined by subtracting the % isotype control positive from the total % positive events.
Peptides A (SEQ ID NO:15) and C (SEQ ID NO:19) were inhibitory at 10^−7 M, but not 10^−6 M. The negative control peptide D (SEQ ID NO:20) (10^−6 M) had no effect on rIL-16-stimulated IL-2R expression.
Murine splenocytes were incubated in control buffer, rIL-16 alone, or rIL-16 plus the indicated peptide. IL-2R expression was determined by flow cytometry using FITC-conjugated anti-IL-2R antibody. The % IL-2R^+ was determined by subtracting the FITC-conjugated isotype control antibody binding from the FITC-conjugated anti-IL-2R antibody binding. Isotype control antibody binding ranged from 1% to 4%.

murine rIL-16 [1] = molecular target: T2, murine rIL-16 (Mus musculus, UniProt O54824); assay: murine rIL-16-stimulated murine splenocyte migration, modified Boyden chamber; conditions: for IL-16-inhibitory activity (block of murine rIL-16-stimulated murine splenocyte migration): peptide concentration not given
T2 construct: polyhistidine fusion protein containing the 119 C-terminal residues encoded by the previously reported murine cDNA; polyhistidine (cleaved yes); made in house; host or cells: Escherichia coli strain HMS 174, vector pET16b
T2 sequence (O54824 1204-1322): T1 sequence (O54824 1204-1322)
Protocol: (§1) Cell migration was assessed using a modified Boyden chamber. […] Cell migration is expressed as the mean % control migration.
(§2) Results from multiple experiments were analyzed using Student's t test for paired variables, and Tukey's test for multiple variables. A P value<0.05 was considered significant.
Peptide B (aa 341-352) includes the sequence WQCLLS (residues 344-349, SEQ ID NO:4) which is 100% conserved in all the species examined. Peptide A (aa 327-338) and peptide C (aa 351-362) correspond to the N-terminal and C-terminal flanks of peptide B, respectively. A random scrambled 12-residue peptide (LSKQKMVSREGT) designated peptide D (SEQ ID NO:20) was used a negative control for nonspecific effects of peptide administration on splenocyte motility. Criteria for the design of peptide D included overall hydrophilicity, neutral charge and no cysteine residues (to prevent possible dimer formation).
Murine spleens were harvested from healthy 8-week male BALB/c mice (Jackson Laboratory). Splenocytes were isolated by grinding spleens between fiysted slides in M199 culture medium (M. A. Bioproducts), supplemented with 0.4% bovine serum albumin, 22 mM HEPES buffer, 100 with U/ml of penicillin, 100 μg/ml streptomycin (M199-HPS). Cells were washed and erytbrocytes were lysed in Gey's solution. Splenocytes were washed twice in M199, and resuspended to a final concentration of 2×10^6 cells/ml in RPMI1640 medium (BioWhittaker) supplemented with 10% FBS, 100 U/ml of penicillin and 100 μg/ml of streptomycin. By flow cytometry, 25% of the isolated splenocytes within the lymphocyte-cloud were CD4^+.
Recombinant murine IL-16 was produced in Escherichia coli (strain HMS 174; Novagen) as a polyhistidine fusion protein containing the 119 C-terminal residues encoded by the previously reported murine cDNA (Keane et al., (1998) J. Immunol. 160: 5945-5954), using the bacterial expression vector pET16b (Novagen). The recombinant product corresponds to the secreted form of natural murine IL-16 following cleavage by caspase-3 (Zhang et al. (1998) J. Biol. Chem. 273:1144-1149). The rIL-16 was purified by metal chelation chromatography, and the polyhistidine tag was cleaved with factor Xa (New England Biolabs).

murine rIL-16 [2] = molecular target: T2, murine rIL-16; assay: IL-16-stimulated T-lymphocyte migration, human CD4 D4 point mutants; conditions: human CD4 D4 wild type or point mutant, rIL-16 10^-9 M
Protocol: Point mutations at Leu 348 and Leu 349 in human CD4 were prepared as follows.
Initially 100 ng of wild type human CD4 cDNA (Richard Axel, Columbia University, N.Y.) contained within the mammalian expression vector pcDNA3.1(−) (Invitrogen, Carlsbad, Calif.) was subjected to the polymerase chain reaction (PCR) in the presence of 125 ng of each set of primer pairs. PCR conditions were as follows:
The time for the elongation step varied according to the relationship of 2 minutes per kilobase of plasmid DNA length. The product was then subjected to restriction digestion with the enzyme Dpn for 1 h. at 37° C. Dpn is specific for methylated nucleotides and therefore will only cut the original wide type CD4-plasmid DNA. The transformation reaction required the addition of 1 μl of the digest to 50 μl of Epicurean Blue Eschericia coli which was incubated on ice for 30 min. and finally heat shocked 42° C., 45 sec to seal the supercompent bacteria. The resultant bacteria culture was selected on ampicillin plates and sequenced to confirm mutagenesis.
as §1, §2
(FIGS. 10A and 10B). […] (FIGS. 11A and 11B).

% IL-2R+ CELLS (rIL-16; IL-16 + negative control peptide, 10^-6 M): 37%
inhibition of IL-16-stimulated induction of IL-2R (rIL-16; peptide 10^-6 M): no effect
Molecule: LSKQKMVSREGT (OTHER INFORMATION: Description of Artificial Sequence:IL-16 antagonist peptide) [peptide D, random scrambled 12-residue peptide used as negative control, reference compound]

Molecule: VAPETG (OTHER INFORMATION: Description of Artificial Sequence:IL-16 antagonist peptide) [aa 337-342, bridges peptide A and peptide B]
IL-16-inhibitory activity (block of murine rIL-16-stimulated murine splenocyte migration) (murine rIL-16 [1]; rIL-16 10^-9 M): failure; also recorded: lacked inhibitory activity

Molecule: VKQVVA (OTHER INFORMATION: Description of Artificial Sequence:IL-16 antagonist peptide) [aa 334 V:K substituted]
reduction of IL-16-stimulated splenocyte migration in combination with peptide B (murine rIL-16 [1]; peptide 10^-6 M plus peptide B fixed 0.5×10^-8 M): reduced IL-16-stimulated splenocyte migration
reduction of IL-16-stimulated splenocyte migration in combination with peptide B (murine rIL-16 [1]; peptide 10^-7 M plus peptide B fixed 0.5×10^-8 M): reduced IL-16-stimulated splenocyte migration

synergy when combined with peptide B (murine rIL-16 [1]; concentration not given, data not shown): no synergy
IL-16-inhibitory activity (block of murine rIL-16-stimulated murine splenocyte migration) (murine rIL-16 [1]; rIL-16 10^-9 M): no inhibitory activity
Molecule: VSEEQK (OTHER INFORMATION: Description of Artificial Sequence:IL-16 antagonist peptide) [N-terminal half of peptide A]

block of IL-16-stimulated splenocyte motility in combination with peptide B (murine rIL-16 [1]; peptide 0.5×10^-6 M to 0.5×10^-9 M (any concentration) plus peptide B fixed 0.5×10^-8 M): did not block IL-16
Molecule: VVQKVA (OTHER INFORMATION: Description of Artificial Sequence:IL-16 antagonist peptide) [aa 336 V:K substituted]

synergistic activity with peptide B (murine rIL-16 [1]; 6-residue peptide 10^-8 M combined with peptide B, data not shown): synergistic activity
Molecule: VVQVVA (OTHER INFORMATION: Description of Artificial Sequence:IL-16 antagonist peptide) [aa 333-338 of mouse CD4 D4, C-terminal half of peptide A]
inhibition of rIL-16-induced splenocyte migration (murine rIL-16 [1]; peptide 10^-6 M, rIL-16 10^-9 M): inhibited rIL16-induced splenocyte migration

IL-16-inhibitory activity (block of murine rIL-16-stimulated murine splenocyte migration) (murine rIL-16 [1]; rIL-16 10^-9 M): failed to block IL-16
Molecule: WACLLS (OTHER INFORMATION: Description of Artificial Sequence:IL-16 antagonist peptide) [aa 345 Q:A substituted]

Molecule: WQALLS (OTHER INFORMATION: Description of Artificial Sequence:IL-16 antagonist peptide) [aa 346 C:A substituted]
IL-16-inhibitory activity (block of murine rIL-16-stimulated murine splenocyte migration) (murine rIL-16 [1]; rIL-16 10^-9 M): equally as effective as the native WQCLLS

IL-16-inhibitory activity (block of murine rIL-16-stimulated murine splenocyte migration) (murine rIL-16 [1]; rIL-16 10^-9 M): failed to block IL-16
Molecule: WQCELS (OTHER INFORMATION: Description of Artificial Sequence:IL-16 antagonist peptide) [aa 347 L:E substituted]

inhibition of IL-16 (splenocyte migration) (murine rIL-16 [1]; peptide 10^-7 M, rIL-16 10^-9 M): inhibited IL-16
Molecule: WQCLLS (OTHER INFORMATION: Description of Artificial Sequence:IL-16 antagonist peptide) [aa 344-349 of mouse CD4 D4]

% IL-2R+ CELLS (rIL-16; rIL-16 10^-9 M alone, no stimulation 24): 36%
increase of basal IL-2R expression (rIL-16; rIL-16 alone, murine splenocytes): 50%
B1: rIL-16: recombinant murine IL-16, 119 C-terminal residues, produced in Escherichia coli (protein)
chain: T1 sequence (O54824 1204-1322)

inhibition of IL-16-stimulated T-lymphocyte migration (murine rIL-16 [2]): IL-16-inhibitory activity
B2: NLTCEVWGPTSPKLMLSLKLENKEAKVSKREKAVWVLNPEAGMWQCLLSDSGQVLLESNIKVLPTWSTPVQPM (peptide)
chain: NLTCEVWGPTSPKLMLSLKLENKEAKVSKREKAVWVLNPEAGMWQCLLSDSGQVLLESNIKVLPTWSTPVQPM
modifications: OTHER INFORMATION: Description of Artificial Sequence:IL-16 antagonist peptide
notes: aa 302-374 of human CD4 D4

inhibition of IL-16-stimulated T-lymphocyte migration (murine rIL-16 [2]): maintained partial ability to inhibit
inhibition of IL-16-stimulated T-lymphocyte migration (murine rIL-16 [2]; listed as Leucine 348 was conservatively substituted with Isoleucine): Partial inhibition
B3: … (peptide)
chain: B2 chain with L47I
modifications: OTHER INFORMATION: Description of Artificial Sequence:IL-16 antagonist peptide
notes: human CD4 D4 with Isoleucine substituted at position 348

inhibition of IL-16-stimulated T-lymphocyte migration (murine rIL-16 [2]): lost the ability to inhibit
inhibition of IL-16-stimulated T-lymphocyte migration (murine rIL-16 [2]; listed as human CD4 (L348→S)): complete loss in inhibition
B4: NLTCEVWGPTSPKLMLSLKLENKEAKVSKREKAVWVLNPEAGMWQCSLSDSGQVLLESNIKVLPTWSTPVQPM (peptide)
chain: B2 chain with L47S
modifications: OTHER INFORMATION: Description of Artificial Sequence:IL-16 antagonist peptide
notes: human CD4 D4 with leucine 348 to serine

inhibition of IL-16-stimulated T-lymphocyte migration (murine rIL-16 [2]): lost the ability to inhibit
inhibition of IL-16-stimulated T-lymphocyte migration (murine rIL-16 [2]; listed as human CD4 (L349→S)): complete loss in inhibition
B5: NLTCEVWGPTSPKLMLSLKLENKEAKVSKREKAVWVLNPEAGMWQCLSSDSGQVLLESNIKVLPTWSTPVQPM (peptide)
chain: B2 chain with L48S
modifications: OTHER INFORMATION: Description of Artificial Sequence:IL-16 antagonist peptide
notes: human CD4 D4 with leucine 349 to serine

inhibition of IL-16-stimulated T-lymphocyte migration (murine rIL-16 [2]): maintained partial ability to inhibit
inhibition of IL-16-stimulated T-lymphocyte migration (murine rIL-16 [2]; listed as Leucine 349 was conservatively substituted with Isoleucine): Partial inhibition
B6: NLTCEVWGPTSPKLMLSLKLENKEAKVSKREKAVWVLNPEAGMWQCLISDSGQVLLESNIKVLPTWSTPVQPM (peptide)
chain: B2 chain with L48I
modifications: OTHER INFORMATION: Description of Artificial Sequence:IL-16 antagonist peptide
notes: human CD4 D4 with Isoleucine substituted at position 349
